Measurements published in US20210079060A1 (ALETA BIOTHERAPEUTICS, published 2021).
Where “and” joins values, the source holds several entries; their conditions need not be identical. Identical values can stand only once. Like-named read-outs stand apart in the source and are kept apart here.

T1: Clec12A (human, UniProt Q5QGZ9 1-265)
T1 construct: whole, on cells; also called CLL-1; MICL
T1 sequence (looked up): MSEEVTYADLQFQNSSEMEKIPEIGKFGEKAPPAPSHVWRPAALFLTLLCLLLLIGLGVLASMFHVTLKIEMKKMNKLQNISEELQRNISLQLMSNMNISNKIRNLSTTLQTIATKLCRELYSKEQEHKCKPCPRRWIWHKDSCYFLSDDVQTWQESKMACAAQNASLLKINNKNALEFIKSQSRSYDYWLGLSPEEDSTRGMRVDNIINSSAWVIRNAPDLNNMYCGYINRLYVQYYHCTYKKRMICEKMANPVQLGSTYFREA


Assays:
Clec12A [1] = target: T1, Clec12A; test: sandwich ELISA: coated with FMC63, construct titrated (x-axis ug/ml), followed by Clec12A-bio, detected by HRP-SA
Clec12A [2] = target: T1, Clec12A; test: binding to U937 cells; supernatant; MW = 46kDa
Clec12A [3] = target: T1, Clec12A; test: binding to U937 cells; supernatant
Clec12A [4] = target: T1, Clec12A; test: sandwich ELISA: coated with FMC63, construct titrated (x-axis ug/ml), followed by Clec12A-bio, detected by HRP-SA; remark: listed apart in the source

| Binder | C of the 4-P fit (midpoint) (Clec12A [1]) [µg/mL] | EC50 (Clec12A [1]) | EC50 (Clec12A [2]) [nM] | EC50 (Clec12A [3]) [µg/mL] | C of the 4-P fit (midpoint) (Clec12A [4]) [µg/mL] | EC50 (Clec12A [4]) |
| --- | --- | --- | --- | --- | --- | --- |
| CD19 mutant #2-G4Sx4-anti CLEC12a VHH 1G6-myc-His (VHH, CD19 variant-VHH fusion) PEEPLVVKVEEGDTAVLPCLKGTSDGPTQQLTWSRESPLKPFLKYSLGVPGLGVHVRPDAISVVIRNVSQQMGGFYLCQPGPPSEKAWQPGWTVNVEGSGELFRWNVSDLGGLGCGLKNRSSEGPSSPSGKLMSPKLYVWAKDRPEIWEGEPPCLPPRDSLNQSLSQDLTMAPGSTLWLSCGVPPDSVSRGPLSWTHVHPKGPKSLLSLELKDDRPAREMIVDETGLLLPRATAQDAGKWYCSRGNVTTSYHLEITARPVKAHSDLRTGGWKGGGGSGGGGSGGGGSGGGGSQVQLQQSGGGLVQAGGSLRLSCAASGSIFAINEINLMGWYRQAPGKQRELVAACASDGNTYYADSVKGRFTISRDNAEKTVYLQMNNLKPDDTAVYYCDANSRGNYYSGQGTQVTVSSTSGPGGQGAEQKLISEEDLGAHHHHHHGAS | 0.0113 | 0.0113 µg/mL and 0.243 nM | 3.4 | 0.157 | – | – |
| anti-CLEC12a VHH 1B12-G4Sx4-CD19 D1+2 C term mutant #2-His (VHH) VHH: QVQLQASGGGLVQAGGSLRLSCAASGSIFAINEINLMGWYRQAPGKQRELVAACASDGNTYYADSVKGRFTISRDNAEKTVYLQMNNLKPDDTAVYYCDANSRGNYYSGQGTQVTVSS | – | – | – | – | 0.015 | 0.015 µg/mL and 0.323 nM |
| #329 (VHH, also called anti CLEC12a VHH 2F5-G4Sx4-CD19 C-term mutant #2-His) VHH: QVQLQQSGGGLAQTGGSLILSCAASGSIFAINEINLMGWYRQAPGKQRELVAACASDGNTYYADSVKGRFTISRDNAEKTVYLQMNNLKPDDTAVYYCDANSRGNYYSGQGTQVTVSS | – | – | – | – | 0.0107 | 0.0107 µg/mL and 0.23 nM |
| #290 (VHH, also called construct #290; CD19 mutant #2-G4Sx4-anti CLEC12a VHH 1H1-His) fusion protein, single chain: PEEPLVVKVEEGDTAVLPCLKGTSDGPTQQLTWSRESPLKPFLKYSLGVPGLGVHVRPDAISVVIRNVSQQMGGFYLCQPGPPSEKAWQPGWTVNVEGSGELFRWNVSDLGGLGCGLKNRSSEGPSSPSGKLMSPKLYVWAKDRPEIWEGEPPCLPPRDSLNQSLSQDLTMAPGSTLWLSCGVPPDSVSRGPLSWTHVHPKGPKSLLSLELKDDRPAREMIVDETGLLLPRATAQDAGKWYCSRGNVTTSYHLEITARPVKAHSDLRTGGWKGGGGSGGGGSGGGGSGGGGSQVQLQESGGGLVQPGGSLRLSCAASGFTFNSYAMTWVRQAPGKGLEWVSDINSGGGSTNYADSVKGRFTISRDNAKNTLYLQMNSLKPEDTAVYYCATELRGSDYYRGPIREYAYWGQGTLVTVSSTSGPGGQGAEQKLISEEDLGAHHHHHHGAS | 0.037 | 0.037 µg/mL and 0.796 nM | – | – | – | – |
| CD19 mutant #2-G4Sx4-anti CLEC12a VHH 2H3-myc-His (VHH, CD19 variant-VHH fusion) PEEPLVVKVEEGDTAVLPCLKGTSDGPTQQLTWSRESPLKPFLKYSLGVPGLGVHVRPDAISVVIRNVSQQMGGFYLCQPGPPSEKAWQPGWTVNVEGSGELFRWNVSDLGGLGCGLKNRSSEGPSSPSGKLMSPKLYVWAKDRPEIWEGEPPCLPPRDSLNQSLSQDLTMAPGSTLWLSCGVPPDSVSRGPLSWTHVHPKGPKSLLSLELKDDRPAREMIVDETGLLLPRATAQDAGKWYCSRGNVTTSYHLEITARPVKAHSDLRTGGWKGGGGSGGGGSGGGGSGGGGSQVQLQESGGGLVQAGGSLRLSCVASGSIRSINVMGWYRQAPGKQRELVAACASDGNTYYADSVKGRFTISRDNAEKTVYLQMNNLKPDDTAVYYCDANSRGNYYSGQGTQVTVSSTSGPGGQGAEQKLISEEDLGAHHHHHHGAS | 0.0201 | 0.0201 µg/mL and 0.432 nM | 4.87 | 0.224 | – | – |

Now from value to binder:

| C of the 4-P fit (midpoint) (Clec12A [1]) [µg/mL] | EC50 (Clec12A [1]) | EC50 (Clec12A [2]) [nM] | EC50 (Clec12A [3]) [µg/mL] | C of the 4-P fit (midpoint) (Clec12A [4]) [µg/mL] | EC50 (Clec12A [4]) | Binder |
| --- | --- | --- | --- | --- | --- | --- |
| 0.0112 | 0.0112 µg/mL and 0.241 nM | – | – | – | – | #334 (VHH, also called CD19 mutant #2-G4Sx4-anti CLEC12a VHH 1B1-His) fusion protein, single chain: PEEPLVVKVEEGDTAVLPCLKGTSDGPTQQLTWSRESPLKPFLKYSLGVPGLGVHVRPDAISVVIRNVSQQMGGFYLCQPGPPSEKAWQPGWTVNVEGSGELFRWNVSDLGGLGCGLKNRSSEGPSSPSGKLMSPKLYVWAKDRPEIWEGEPPCLPPRDSLNQSLSQDLTMAPGSTLWLSCGVPPDSVSRGPLSWTHVHPKGPKSLLSLELKDDRPAREMIVDETGLLLPRATAQDAGKWYCSRGNVTTSYHLEITARPVKAHSDLRTGGWKGGGGSGGGGSGGGGSGGGGSQVQLQESGGGLVQAGGSLRLSCAASGSIFAINEINLMGWYRQAPGKQRELVAACASDGNTYYADSVKGRFTISRDNAEKTVYLQMNNLKPDDTAVYYCDANSRGNYYSGQGTQVTVSSTSGPGGQGAEQKLISEEDLGAHHHHHHGAS |
| 0.0108 | 0.0108 µg/mL and 0.232 nM | – | – | – | – | #335 (VHH, also called CD19 mutant #2-G4Sx4-anti CLEC12a VHH 2C8-His) fusion protein, single chain: PEEPLVVKVEEGDTAVLPCLKGTSDGPTQQLTWSRESPLKPFLKYSLGVPGLGVHVRPDAISVVIRNVSQQMGGFYLCQPGPPSEKAWQPGWTVNVEGSGELFRWNVSDLGGLGCGLKNRSSEGPSSPSGKLMSPKLYVWAKDRPEIWEGEPPCLPPRDSLNQSLSQDLTMAPGSTLWLSCGVPPDSVSRGPLSWTHVHPKGPKSLLSLELKDDRPAREMIVDETGLLLPRATAQDAGKWYCSRGNVTTSYHLEITARPVKAHSDLRTGGWKGGGGSGGGGSGGGGSGGGGSQVQLVESGGGLVQAGGSLRLSCAASGSIFAINEINLMGWYRQAPGKQRELVAACASDGNTYYADSVKGRFTISRDNAEKTVYLQMNNLKPDDTAVYYCDANSRGNYYSGQGTLVTVSSTSGPGGQGAEQKLISEEDLGAHHHHHHGAS |
| – | – | – | – | 0.00648 | 0.0065 µg/mL and 0.14 nM | anti-CLEC12a VHH 1B1-G4Sx4-CD19 D1+2 C term mutant #2-His (VHH) VHH: QVQLQESGGGLVQAGGSLRLSCAASGSIFAINEINLMGWYRQAPGKQRELVAACASDGNTYYADSVKGRFTISRDNAEKTVYLQMNNLKPDDTAVYYCDANSRGNYYSGQGTQVTVSS |
| – | – | – | – | 0.00751 | 0.0075 µg/mL and 0.161 nM | anti-CLEC12a VHH 1A10-CD19 D1+2 C term mutant #2 (VHH) VHH: QVQLQESGGGLVQVGESLRLSCVVSGDTRSINLMGWYRQAPGKQRELVAACASDGNTYYADSVKGRFTISRDNAEKTVYLQMNNLKPDDTAVYYCDANSRGNYYSGQGTLVTVSS |
| – | – | 3.76 | 0.173 | – | – | CD19 mutant #2-G4Sx4-anti CLEC12a VHH 2F3-myc-His (VHH, CD19 variant-VHH fusion) PEEPLVVKVEEGDTAVLPCLKGTSDGPTQQLTWSRESPLKPFLKYSLGVPGLGVHVRPDAISVVIRNVSQQMGGFYLCQPGPPSEKAWQPGWTVNVEGSGELFRWNVSDLGGLGCGLKNRSSEGPSSPSGKLMSPKLYVWAKDRPEIWEGEPPCLPPRDSLNQSLSQDLTMAPGSTLWLSCGVPPDSVSRGPLSWTHVHPKGPKSLLSLELKDDRPAREMIVDETGLLLPRATAQDAGKWYCSRGNVTTSYHLEITARPVKAHSDLRTGGWKGGGGSGGGGSGGGGSGGGGSQVQLQAFGGGLVQPGGSLRLSCVVSGTMFSGKDVNWLRQAPGKHVEVVATVSSDGGTDYADFVKGRFTISRDDAKNTVNLQMNSLEPEDTANYMCHFLWGRHYWGQGTQVTVSSTSGPGGQGAEQKLISEEDLGAHHHHHHGAS |
| 0.0106 | 0.0106 µg/mL and 0.228 nM | – | – | – | – | #333 (VHH, also called CD19 mutant #2-G4Sx4-anti CLEC12a VHH 1A10-His) fusion protein, single chain: PEEPLVVKVEEGDTAVLPCLKGTSDGPTQQLTWSRESPLKPFLKYSLGVPGLGVHVRPDAISVVIRNVSQQMGGFYLCQPGPPSEKAWQPGWTVNVEGSGELFRWNVSDLGGLGCGLKNRSSEGPSSPSGKLMSPKLYVWAKDRPEIWEGEPPCLPPRDSLNQSLSQDLTMAPGSTLWLSCGVPPDSVSRGPLSWTHVHPKGPKSLLSLELKDDRPAREMIVDETGLLLPRATAQDAGKWYCSRGNVTTSYHLEITARPVKAHSDLRTGGWKGGGGSGGGGSGGGGSGGGGSQVQLQESGGGLVQVGESLRLSCVVSGDTRSINLMGWYRQAPGKQRELVAACASDGNTYYADSVKGRFTISRDNAEKTVYLQMNNLKPDDTAVYYCDANSRGNYYSGQGTLVTVSSTSGPGGQGAEQKLISEEDLGAHHHHHHGAS |
